This experiment addresses Flag-importin α1 (human, UniProt P52292 1-529). Briefly: pull-down.

Here are results for one molecule from article doi:10.1101/2021.02.24.432656 (bioRxiv, 2021).

B1: GST-GFP fused ORF6 full-length protein (natural protein)
chain: MFHLVDFQVTIAEILLIIMRTFKVSIWNLDYIINLIIKNLSKSLTENKYSQLDEEQPMEID
With B1, the binding result is given as “binds”.
